Measured values reported in article PMC12646662.

Assays:
[1] = target: E-cadherin, endogenous in SK-Mel-28 cells; assay: Flag IP with mass spectrometry (LFQ); details: read off a plot
[2] = target: GSDMA; assay: Flag IP with mass spectrometry (LFQ); details: SK-Mel-28 cells; read off a plot

Substance “Flag-CTNND1 WT, stably expressed in SK-Mel-28 cells (from UniProt O60716) C618S” has a log10 ratio [1] of -2.5 and a log10 ratio [2] of 2.2.
